Blank lines part the entries; values can stand above or below the binder they belong to. No end group written: not given here. *: point of attachment. TAMRA = 5-carboxytetramethylrhodamine, CN(C)c1ccc2c(-c3ccc(C(=O)*)cc3C(=O)[O-])c3ccc(=[N+](C)C)cc-3oc2c1
B2: BAK (UniProt:Q16611, residues 16–185, C166S) (domain or fragment, human, UniProt Q16611 16-185, looked up)
chain: EPALPSASEEQVAQDTEEVFRSYVFYRHQQEQEAEGVAAPADPEMVTLPLQPSSTMGQVGRQLAIIGDDINRRYDSEFQTMLQHLQPTAENAYEYFTKIATSLFESGINWGRVVALLGFGYRLALHVYQHGLTGFLGQVTRFVVDFMLHHSIARWIAQRGGWVAALNLGN
notes: human BAK, residues 16-185, without the short disordered N-terminal segment and the C-terminal transmembrane helix; cysteine mutated to serine; Monomeric in buffer, oligomeric in detergent; the same construct in all experiments; Theoretical mass 19217.64 Da; also called 'wild-type' BAK (no cysteines); source: E. coli BL21(DE3), purified (chitin resin, intein self-cleavage with DTT, SEC); not …
B4: MCL-1 (UniProt:Q07820, residues 168–327, C286S) (domain or fragment, human)
chain: GSEEEEDELYRQSLEIISRYLREQATGAKDTKPMGRSGATSRKALETLRRVGDGVQRNHETAFQGMLRKLDIKNEDDVKSLSRVMIHVFSDGVTNWGRIVTLISFGAFVAKHLKTINQESSIEPLAESITDVLVRTKRDWLVKQRGWDGFVEFFHVEDLEGG
notes: extra GS left at the N-terminus after removal of the tag with thrombin; human MCL-1, residues 168-327, without the disordered N-terminus and the C-terminal transmembrane region; Theoretical mass 18409.74 Da; source: E. coli C41(DE3), purified (Ni-NTA, thrombin cleavage, cation exchange, SEC); not shown: His6, N-terminal, cleaved

Experiments:
Details in all cases: both partners purified
[1] = target: B4; assay: out-competition dissociation kinetics (fluorescence); pre-formed equimolar complex of MCL-1 and TAMRA-labelled BH3 peptide diluted into 50–400 molar excess of un-labelled PUMABH3; TAMRA fluorescence intensity or polarisation; manual mixing or stopped-flow; buffer without detergent
[2] = target: B4; assay: fluorescence polarisation; kinetics; BAK and MCL-1 pre-incubated in PS20 (20xCMC), then dye-labelled BH3 peptide added; change in TAMRA fluorescence polarisation fitted to a single exponential
[3] = target: B4; assay: SEC; proteins pre-incubated in detergent (PS20, C12E8 and others, at the multiples of CMC given in the legends); Superdex 200 Increase 10/300 GL, 50 mM sodium phosphate pH 7.0
[4] = target: B2; assay: as above
[5] = target: T1, BAX (UniProt:Q07812, residues 1–171, C62S, C126S) (human, UniProt Q07812 1-171, C62S | C126S); assay: native MS; 5 μM total protein (equimolar), 100 mM ammonium acetate pH 7.0, PS20 5xCMC, at least 3 h at room temperature
T1 construct: human BAX, residues 1-171, without the C-terminal transmembrane helix; cysteines mutated to serines; Theoretical mass 18933.65 Da; source: E. coli C41(DE3), purified (chitin resin, intein self-cleavage with DTT, SEC); not shown: intein, C-terminal, cleaved

[6] = target: B4; assay: stopped-flow association kinetics + other: out-competition dissociation kinetics; affinities of BH3 peptides for MCL-1 in buffer without detergent (Table 1); how Kd was obtained is not told in the text shown

T1 sequence (Q07812 1-171 C62S/C126S, one chain of several): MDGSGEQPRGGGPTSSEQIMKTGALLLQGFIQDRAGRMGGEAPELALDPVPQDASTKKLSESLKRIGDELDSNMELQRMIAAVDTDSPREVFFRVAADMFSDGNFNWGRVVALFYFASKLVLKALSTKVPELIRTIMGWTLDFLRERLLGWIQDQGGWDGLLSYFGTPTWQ

B1: PUMABH3, un-labeled, recombinant (UniProt:Q9BXH1, residues 125–161, M144A) (peptide, UniProt Q9BXH1 125-161, looked up)
peptide: GVRGEEEQWAREIGAQLRRAADDLNAQYERRRQEEQQ
notes: human PUMA BH3, residues 125-161; theoretical mass 4442.75 Da is printed; not shown: His6, N-terminal, cleaved; GB1, N-terminal, cleaved
binding result [1]: binds

Binder: B2
half-life (displacement of BAK:MCL-1 hetero-dimers by PUMA) [2]: ~17 min

Binder: B4
binding result [4]: binds
binding result [5]: binds

Further lines, results first:

binding result [3]: binds
B3: BIDBH3, TAMRA-labelled 35-residue peptide (UniProt:P55957, residues 76–110) (peptide, UniProt P55957 76-110, looked up)
peptide: {TAMRA}-SESQEDIIRNIARHLAQVGDSMDRSIPPGLVNGLA
notes: source: synthetic peptide, bought: Biomatik

koff [1]: 0.00056 s⁻¹
Kd [6]: 0.08 nM
B5: BAKBH3, TAMRA-labelled 35-residue peptide (UniProt:Q16611, residues 64–98, P64A) (peptide, UniProt Q16611 64-98, looked up)
peptide: {TAMRA}-ALQPSSTMGQVGRQLAIIGDDINRRYDSEFQTMLQ
notes: as for B3

Source: publication doi:10.1101/756874, “Spontaneous oligomerization of BAK/BAX is suppressed by hetero-dimerization with MCL-1” (bioRxiv, 2019)
